B1: IQ motif and ubiquitin-like domain-containing protein (Homo sapiens), Q8NA54 (parent)
chain: MSNQQEKYEAQNIVNSTEESDDAFDTVTIPVPSEEPQESDQTEEHESGIEQFSESHAIHVEEQSDQSFSSLEPDNEQLMEEVISPRQVSYTPQHHEKQYAMQRPNDDSLAFLDKIKSVKESLQESVEDSLATVKVVLIPVGQEIVIPFKVDTILKYLKDHFSHLLGIPHSVLQIRYSGKILKNNETLVQHGVKPQEIVQVEIFSTNPDLYPVRRIDGLTDVSQIITVTVQTGLDQYQQVPVEIVKSDFHKPFLGGFRHKVTGVEYHNAGTQTVPKRIPERLSIFCRDTQTVFQKKNLQQTTNTTSTQMTNIGVYVSNMTDKLVTPGKYFSAAEYHAQRLKAVIVIQTYYRQWHAKIFVENLRRQKSLRLEWETQQELRKIREKEEWIKLDYHRRHNPKTNEDFEFLYNALEFWRQEELTRINQSFTGAERKAALCELLEKETQIIASIGRHRYIAYMANQEAAIQAFLDKCSAPKIWRTPNGKTIEMDTQFTIRARELQNIYKCIMLKNISQDERLDVLLTLKHTVKEHECKLTQEILELIDREVDLMMRGVKHHNLEGLRKRIATLFFHYIKTPLFNPEVAKYLKVPQDPLKFYKKIYFCHSCQLYLPSTEFSVSSTSRRIYRCRNCINLQNEAQKRESFLKYKCLLQQLYYTEADYEDDSKIAFLMQLQDIQYLTENIWASQSVLSACDNLSDLVMVRWNKSLEWSPWNCILLTKDEAAAHLKLTSIEEGYERSFIHKIKHKHILAKNYFSQVPVLASFILDDGEIDEIRWKYHSDTTPKIIESQRPPH
partner: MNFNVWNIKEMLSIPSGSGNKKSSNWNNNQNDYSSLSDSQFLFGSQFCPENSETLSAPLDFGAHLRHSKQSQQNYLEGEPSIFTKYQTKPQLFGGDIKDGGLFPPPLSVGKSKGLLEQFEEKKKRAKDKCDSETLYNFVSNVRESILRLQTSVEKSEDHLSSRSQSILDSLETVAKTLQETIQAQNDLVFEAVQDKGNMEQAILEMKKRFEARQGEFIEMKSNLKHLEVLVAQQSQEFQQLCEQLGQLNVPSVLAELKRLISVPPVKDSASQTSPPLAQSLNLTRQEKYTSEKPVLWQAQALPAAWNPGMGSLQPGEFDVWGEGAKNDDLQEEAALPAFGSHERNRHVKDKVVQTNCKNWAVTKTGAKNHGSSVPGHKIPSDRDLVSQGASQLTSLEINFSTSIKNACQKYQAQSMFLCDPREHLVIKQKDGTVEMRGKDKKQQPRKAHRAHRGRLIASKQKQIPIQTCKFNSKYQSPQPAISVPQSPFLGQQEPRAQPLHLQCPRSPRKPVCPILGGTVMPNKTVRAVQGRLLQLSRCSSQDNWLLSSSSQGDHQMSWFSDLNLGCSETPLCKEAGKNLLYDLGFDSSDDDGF
B2: Caspase recruitment domain-containing protein 9 (Homo sapiens), Q9H257 (parent)
chain: MSDYENDDECWSVLEGFRVTLTSVIDPSRITPYLRQCKVLNPDDEEQVLSDPNLVIRKRKVGVLLDILQRTGHKGYVAFLESLELYYPQLYKKVTGKEPARVFSMIIDASGESGLTQLLMTEVMKLQKKVQDLTALLSSKDDFIKELRVKDSLLRKHQERVQRLKEECEAGSRELKRCKEENYDLAMRLAHQSEEKGAALMRNRDLQLEIDQLKHSLMKAEDDCKVERKHTLKLRHAMEQRPSQELLWELQQEKALLQARVQELEASVQEGKLDRSSPYIQVLEEDWRQALRDHQEQANTIFSLRKDLRQGEARRLRCMEEKEMFELQCLALRKDSKMYKDRIEAILLQMEEVAIERDQAIATREELHAQHARGLQEKDALRKQVRELGEKADELQLQVFQCEAQLLAVEGRLRRQQLETLVLSSDLEDGSPRRSQELSLPQDLEDTQLSDKGCLAGGGSPKQPFAALHQEQVLRNPHDAGLSSGEPPEKERRRLKESFENYRRKRALRKMQKGWRQGEEDRENTTGSDNTDTEGS
partner: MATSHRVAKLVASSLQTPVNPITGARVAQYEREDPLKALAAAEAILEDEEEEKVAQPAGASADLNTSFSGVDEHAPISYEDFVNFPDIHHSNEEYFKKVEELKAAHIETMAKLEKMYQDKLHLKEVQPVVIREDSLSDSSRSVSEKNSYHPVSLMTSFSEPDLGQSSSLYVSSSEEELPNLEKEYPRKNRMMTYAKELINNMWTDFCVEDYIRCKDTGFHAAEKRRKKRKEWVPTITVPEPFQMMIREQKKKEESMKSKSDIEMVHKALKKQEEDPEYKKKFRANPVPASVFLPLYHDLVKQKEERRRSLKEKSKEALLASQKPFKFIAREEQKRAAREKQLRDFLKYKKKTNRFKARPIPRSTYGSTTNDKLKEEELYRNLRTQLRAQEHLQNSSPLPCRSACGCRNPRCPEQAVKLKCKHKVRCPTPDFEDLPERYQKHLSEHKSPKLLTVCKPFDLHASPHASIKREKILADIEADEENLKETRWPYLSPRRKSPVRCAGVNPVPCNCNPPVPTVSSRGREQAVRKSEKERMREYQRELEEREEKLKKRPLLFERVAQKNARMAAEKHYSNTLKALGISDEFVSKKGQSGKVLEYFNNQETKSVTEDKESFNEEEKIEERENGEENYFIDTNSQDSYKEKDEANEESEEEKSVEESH
B3: Spermatogenic leucine zipper protein 1 (Homo sapiens), Q9BXG8 (parent)
chain: MASSAKSAEMPTISKTVNPTPDPHQEYLDPRITIALFEIGSHSPSSWGSLPFLKNSSHQVTEQQTAQKFNNLLKEIKDILKNMAGFEEKITEAKELFEETNITEDVSAHKENIRGLDKINEMLSTNLPVSLAPEKEDNEKKQEMILETNITEDVSAHKENIRGLDKINEMLSTNLPVSLAPEKEDNEKKQQMIMENQNSENTAQVFARDLVNRLEEKKVLNETQQSQEKAKNRLNVQEETMKIRNNMEQLLQEAEHWSKQHTELSKLIKSYQKSQKDISETLGNNGVGFQTQPNNEVSAKHELEEQVKKLSHDTYSLQLMAALLENECQILQQRVEILKELHHQKQGTLQEKPIQINYKQDKKNQKPSEAKKVEMYKQNKQAMKGTFWKKDRSCRSLDVCLNKKACNTQFNIHVARKALRGKMRSASSLR
partner: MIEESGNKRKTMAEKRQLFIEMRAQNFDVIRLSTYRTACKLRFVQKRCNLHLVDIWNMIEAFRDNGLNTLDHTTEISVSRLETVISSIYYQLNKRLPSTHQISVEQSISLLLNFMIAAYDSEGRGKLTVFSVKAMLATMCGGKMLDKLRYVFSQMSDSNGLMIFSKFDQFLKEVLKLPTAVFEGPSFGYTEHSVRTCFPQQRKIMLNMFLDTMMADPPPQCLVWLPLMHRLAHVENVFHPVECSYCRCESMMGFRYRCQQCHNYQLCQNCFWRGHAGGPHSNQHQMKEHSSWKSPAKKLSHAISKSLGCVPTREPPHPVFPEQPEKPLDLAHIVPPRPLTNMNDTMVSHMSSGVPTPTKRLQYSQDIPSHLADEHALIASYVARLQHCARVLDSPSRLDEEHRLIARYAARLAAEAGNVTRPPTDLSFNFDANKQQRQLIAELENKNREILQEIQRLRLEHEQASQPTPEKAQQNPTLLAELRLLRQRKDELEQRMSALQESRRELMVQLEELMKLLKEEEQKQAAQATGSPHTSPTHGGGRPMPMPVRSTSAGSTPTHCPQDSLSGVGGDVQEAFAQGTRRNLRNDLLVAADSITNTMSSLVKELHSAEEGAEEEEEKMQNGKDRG
B4: Serine/threonine-protein kinase PAK 5 (Homo sapiens), Q9P286 (parent)
chain: MFGKKKKKIEISGPSNFEHRVHTGFDPQEQKFTGLPQQWHSLLADTANRPKPMVDPSCITPIQLAPMKTIVRGNKPCKETSINGLLEDFDNISVTRSNSLRKESPPTPDQGASSHGPGHAEENGFITFSQYSSESDTTADYTTEKYREKSLYGDDLDPYYRGSHAAKQNGHVMKMKHGEAYYSEVKPLKSDFARFSADYHSHLDSLSKPSEYSDLKWEYQRASSSSPLDYSFQFTPSRTAGTSGCSKESLAYSESEWGPSLDDYDRRPKSSYLNQTSPQPTMRQRSRSGSGLQEPMMPFGASAFKTHPQGHSYNSYTYPRLSEPTMCIPKVDYDRAQMVLSPPLSGSDTYPRGPAKLPQSQSKSGYSSSSHQYPSGYHKATLYHHPSLQSSSQYISTASYLSSLSLSSSTYPPPSWGSSSDQQPSRVSHEQFRAALQLVVSPGDPREYLANFIKIGEGSTGIVCIATEKHTGKQVAVKKMDLRKQQRRELLFNEVVIMRDYHHDNVVDMYSSYLVGDELWVVMEFLEGGALTDIVTHTRMNEEQIATVCLSVLRALSYLHNQGVIHRDIKSDSILLTSDGRIKLSDFGFCAQVSKEVPKRKSLVGTPYWMAPEVISRLPYGTEVDIWSLGIMVIEMIDGEPPYFNEPPLQAMRRIRDSLPPRVKDLHKVSSVLRGFLDLMLVREPSQRATAQELLGHPFLKLAGPPSCIVPLMRQYRHH
partner: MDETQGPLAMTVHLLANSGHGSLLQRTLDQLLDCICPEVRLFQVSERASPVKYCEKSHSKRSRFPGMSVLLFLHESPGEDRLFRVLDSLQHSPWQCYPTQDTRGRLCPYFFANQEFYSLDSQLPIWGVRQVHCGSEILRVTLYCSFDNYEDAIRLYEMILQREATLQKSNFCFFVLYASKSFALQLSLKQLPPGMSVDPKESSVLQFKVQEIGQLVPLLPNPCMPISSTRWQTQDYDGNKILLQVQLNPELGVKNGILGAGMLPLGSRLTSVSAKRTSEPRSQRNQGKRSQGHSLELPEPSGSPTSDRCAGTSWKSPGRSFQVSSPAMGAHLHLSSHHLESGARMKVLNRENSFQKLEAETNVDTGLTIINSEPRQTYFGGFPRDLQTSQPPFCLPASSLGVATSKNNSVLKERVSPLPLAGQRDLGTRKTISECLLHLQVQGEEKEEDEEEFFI

Variants of: B1
Conditions: with iho1_human IHO1, Q8IYA8

Variant	effect of a mutation on the interaction
I501F	disrupting interaction strength
V126M	with no effect

Variants of: B2
Conditions: with FAM161A

Variant	effect of a mutation on the interaction
V385L	with no effect

Variants of: B3
Conditions: with dtnb_human DTNB

Variant	effect of a mutation on the interaction
H301P	with no effect
E9K	with no effect

Variants of: B4
Conditions: with FAM124B

Variant	effect of a mutation on the interaction
R335P	with no effect
